Measured values from patent US20070248607A1, “NEGATIVE IMMUNOMODULATION OF IMMUNE RESPONSES BY NKG2D-POSITIVE CD4+ CELLS” (priority 2005, published 2007).

Assays:
Format in all cases: cell-based
CD4 T cells = assay: Cell cycle analysis by propidium iodide staining; conditions: anti-CD3 activated CD4 T cell cultures
NKG2D+ CD4+ T cells = assay: NKG2D expression and expansion of activated CD4 T cells; conditions: for expansion / proliferation of NKG2D+ CD4+ T cells: anti-CD3 activated CD4 T cell cultures
Description: For the analysis of NKG2D expression in activated CD4 T cells, freshly isolated pure CD4^+ T cells were plated at 0.3×10^6/2 ml AIM-V medium (Gibco)/well in 24 well plates for various periods of time with or without the presence of mitogenic stimuli and/or the presence of NKG2D ligands. Mitogenic stimuli included either cross-linked anti-CD3 (plates were first coated with AffiniPure F(ab′)2 fragment goat anti-mouse IgG1, Fcγ fragment specific (Jackson ImmunoResearch Laboratories, Inc.) at 10 μg/ml in PBS over night at 4° C. followed by a 4 hr room temperature incubation with anti-CD3 (OKT3, Orthoclone, Ortho Biotech Products, L.P.) at 50 ng/ml (if not indicated otherwise), PHA (5 μg/ml), or PMA/Ionomycin. Ligand additions consisted of either irradiated CLR-MICA and control transfectants at a T cell:transfectant ratio of 5:1, or recombinant soluble MICA at 25 ng/ml if not indicated otherwise. Cells were harvested at various time points after the initiation of culture and tested for NKG2D, CD4 and CD3 coexpression using directly conjugated mAbs for standard three color flow cytometry.
(§1) For analysis of CD4^+ T cell proliferation in conjunction with NKG2D expression, 1×10^7 freshly isolated pure CD4^+ T cells/ml PBS were labeled with an equal volume of 2 μM CFSE (Molecular Probes) for 8 min at room temperature. CFSE was quenched with an equal volume of fetal calf serum for one min followed by three washes with AIM-V medium. CFSE labeled cells were then plated, stimulated and phenotypically analysed as described above. Additional ligands tested in this experimental setting included any of either C1R-MICB, ULBP-1, -2, -3, 4, or -5 transfectants, recombinant soluble MICB, or 5% soluble MIC containing serum from a MIC+ tumor patient and MIC− control serum. To test ligand specificity, ligand containing cultures were treated with either 10 μg/ml 6D4 (anti-MICA/B), 10 μg/ml 3F1 (anti-ULBP-1), or appropriately diluted isotype control immunoglobulins. In some experiments, ligand was replaced by solid-phase anti-NKG2D (1D11) at the concentrations ranging from 5-50 ng/ml. In some experiments, ligand/solid-phase mAb were added on day 1, 2 or 3 after the initiation of culture.

NKG2D- CD4+ T cells = assay: CD4 T cell proliferation (CFSE dilution, [3H]thymidine incorporation); conditions: anti-CD3 activated CD4 T cell cultures
Description: as §1
To assess inhibition of CD4^+ T cell proliferation by standard [^3H]thymidine incorporation experiments, freshly isolated pure CD4^+ T cells were plated at 1×10^5 cells/well in a 96 well flat bottom plate containing titrated cross-linked anti-CD3 (see above) or isotype control Ig with or without titrated recombinant soluble MIC. After 72 hrs at 37° C., plates were pulsed with 3 μCi of [^3H]thymidine (Perkin Elmer) for 12 hrs. Plates were harvested and samples analysed by liquid scintillation using Uni-Filter GF/C plates and a TopCount Counter (both from Packard). Counts from triplicates were averaged.

B1: sMICA: soluble MICA, NKG2D ligand added to CD4 T cell cultures (protein)
chain: EPHSLRYNLTVLSWDGSVQSGFLTEVHLDGQPFLRCDRQKCRAKPQGQWAEDVLGNKTWDRETRDLTGNGKDLRMTLAHIKDQKEGLHSLQEIRVCEIHEDNSTRSSQHFYYDGELFLSQNLETKEWTMPQSSRAQTLAMNVRNFLKEDAMKTKTHYHAMHADCLQELRRYLKSGVVLRRTVPPMVNVTRSEASEGNITVTCRASGFYPWNITLSWRQDGVSLSHDTQQWGDVLPDGNGTYQTWVATRICQGEEQRFTCYMEHSGNHSTHPVPSGK
- cell cycle distribution (CD4 T cells): partial cell cycle arrests in G0/G1
- expansion / proliferation of NKG2D+ CD4+ T cells (NKG2D+ CD4+ T cells): expansion of NKG2D^+ CD4^+ T cells
- expansion / proliferation of NKG2D+ CD4+ T cells (NKG2D+ CD4+ T cells; listed as soluble MICA): proliferate
- NKG2D induction on normal CD4+ T cells (NKG2D+ CD4+ T cells; upon anti-CD3 activation): enhanced
- proliferation of NKG2D- CD4+ T cells (NKG2D- CD4+ T cells): inhibition of NKG2D^− CD4^+ T cell proliferation
